The target of test [1] is T1, equine IL-31 protein (Equine_IL31) (equine).
T1 construct: Recombinant equine IL-31
T1 chain: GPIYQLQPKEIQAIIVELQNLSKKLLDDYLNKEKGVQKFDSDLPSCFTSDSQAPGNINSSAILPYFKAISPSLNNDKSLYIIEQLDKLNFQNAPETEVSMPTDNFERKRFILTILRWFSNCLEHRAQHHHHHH
As to the kind of experiment: ELISA screening of hybridoma supernatants on equine IL-31.

The target of test [2] is T2, wildtype feline IL-31 protein (Feline_IL31_wildtype) (feline).
T2 sequence: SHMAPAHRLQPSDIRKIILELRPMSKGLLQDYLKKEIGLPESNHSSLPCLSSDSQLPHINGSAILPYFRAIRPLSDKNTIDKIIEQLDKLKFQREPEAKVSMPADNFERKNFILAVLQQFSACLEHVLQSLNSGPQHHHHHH
Briefly: Biacore, feline IL-31 chip, mAb 100 nM, share of points within parent mean +/-3 SD. A general note: In SPR one partner is held on a chip, and binding of the other changes the refractive index at the surface.

For test [3] the target is unchanged.
In test [4] the target is T3, mutant feline IL-31 11E12 protein (Feline_IL31_11E12_mutant) (feline).
T3 construct: also called feline 11E12 mutant; 11E12 IL-31 mutant
T3 chain: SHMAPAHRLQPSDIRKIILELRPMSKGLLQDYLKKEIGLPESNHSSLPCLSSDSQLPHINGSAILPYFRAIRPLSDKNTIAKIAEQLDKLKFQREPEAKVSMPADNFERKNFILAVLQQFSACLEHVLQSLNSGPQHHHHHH
Briefly: SPR (Biacore), IL-31 surface, single antibody concentration. On the procedure:
(§1) For the indirect ELISA method, antibody binding to wildtype and feline IL-31 15H05 mutant proteins was assessed. All nine canine monoclonal antibodies (ZIL1, ZIL8, ZIL8, ZIL11, ZIL69, ZIL94, ZIL154, ZIL159, and ZIL171) were capable of binding to wildtype feline IL-31 and binding was impacted by mutations in the mAb 15H05 epitope region confirming the correct binding phenotype determined during the initial screening used to identify them. In comparison, the 11E12 antibody bound to the wild-type feline IL-31 and its binding was not impacted by the mutations in the 15H05 epitope region as evidenced by the data in FIG. 4. To confirm binding, biacore analysis was performed using canine, feline, equine, human, feline 15H05 mutant, and feline 11E12 mutant IL-31 proteins as surfaces and a single test concentration of antibody. Similar to ELISA observations, all antibodies tested bound to wildtype feline IL-31. In agreement with the data described above in this section, mouse antibodies 11E12 and 15H05 both bound to canine and feline IL-31 surfaces. Three additional antibodies where shown to have this dual binding property, ZIL69 (partial canine binding), ZIL94, and ZIL159. From this group of nine fully canine antibodies, only ZIL1 and ZIL9 cross-reacted with equine IL-31. Of note, antibody 15H05 was the only one of all assayed herein that bound to canine, feline, and equine IL-31 indicating some level of epitope conservation across the three species. In contrast, none of the antibodies described herein bound to human IL-31. Additional biacore surfaces were used to verify ELISA observations showing differential binding of antibodies to wildtype feline IL-31 and two proteins with mutations in the 15H05 (15H05 mutant) or 11E12 (11E12 mutant) epitopes.

In test [5] the target is T1, equine IL-31 protein (Equine_IL31). The description is as above. On the procedure:
as §1

The target in test [6] is T4, mutant feline IL-31 15H05 protein (Feline_IL31_15H05_mutant) (feline).
T4 sequence: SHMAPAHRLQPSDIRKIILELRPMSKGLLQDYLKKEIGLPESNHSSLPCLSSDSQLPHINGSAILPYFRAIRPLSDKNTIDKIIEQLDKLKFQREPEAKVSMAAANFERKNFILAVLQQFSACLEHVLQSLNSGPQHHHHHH
Briefly: indirect ELISA, IL-31 protein coated.

Test [7] has as its target T5, wildtype feline IL-31 protein (Feline_IL31_wildtype) (feline).
T5 construct: Full length feline IL-31 with C-terminal His tag, secreted from ExpiCHO cells; also called fIL-31
T5 chain: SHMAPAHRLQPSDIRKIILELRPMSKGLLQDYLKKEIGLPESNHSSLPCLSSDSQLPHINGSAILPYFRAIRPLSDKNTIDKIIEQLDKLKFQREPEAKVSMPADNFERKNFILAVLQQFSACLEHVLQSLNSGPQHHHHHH
Briefly: indirect ELISA, IL-31 protein coated. On the procedure: as §1, with “epitopes. […] In agreement with the ELISA results, all fully canine antibodies were impacted by the 15H05 mutation with the exception of ZIL94, ZIL154, and ZIL171 (partially affected). Differing results can be attributed to differences in the two assay methodologies.” for “epitopes.”
In general terms: In an ELISA, binding on a coated surface is turned into a signal by an enzyme label.

For the next test, the target named is T6, human IL-31 (human, UniProt Q6EBC2 24-164).
T6 sequence: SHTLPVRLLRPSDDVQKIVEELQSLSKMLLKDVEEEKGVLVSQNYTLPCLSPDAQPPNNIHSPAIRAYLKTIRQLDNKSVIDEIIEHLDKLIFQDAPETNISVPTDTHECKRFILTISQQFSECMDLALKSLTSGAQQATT
As to the kind of experiment: SPR (Biacore), IL-31 surface, single antibody concentration. On the procedure:
as §1

The target of test [8] is T7, mutant feline IL-31 15H05 protein (Feline_IL31_15H05_mutant) (feline).
T7 construct: also called feline 15H05 mutant; 15H05 IL-31 mutant
T7 chain: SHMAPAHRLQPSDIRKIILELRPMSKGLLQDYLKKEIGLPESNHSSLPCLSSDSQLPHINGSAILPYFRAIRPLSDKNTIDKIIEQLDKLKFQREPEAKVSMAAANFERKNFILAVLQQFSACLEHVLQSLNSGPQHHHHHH
As to the kind of experiment: indirect ELISA, IL-31 protein coated. On the procedure:
as §1, with “epitopes. […] In agreement with the ELISA results, all fully canine antibodies were impacted by the 15H05 mutation with the exception of ZIL94, ZIL154, and ZIL171 (partially affected). Differing results can be attributed to differences in the two assay methodologies.” for “epitopes.”

Test [9] has as its target T5, wildtype feline IL-31 protein …. As to the kind of experiment: cell-based or functional assay.
Test [10] has the same target. As to the kind of experiment: cell-based or functional assay.
The target is the same in test [11]. As to the kind of experiment: SPR (Biacore), feline IL-31 (SEQ ID NO 157). On the procedure: The affinity with which candidate mAbs bind canine and feline IL-31 was determined using surface plasmon resonance (SPR) on a Biacore system (Biocore Life Sciences (GE Healthcare), Uppsala, Sweden). To avoid affinity differences associated with differential surface preparation that can occur when immobilizing antibodies to surfaces; a strategy was employed where IL-31 was directly conjugated to the surface. Immobilization was obtained by amine coupling 5 μg/mL IL-31 using N-hydroxysuccinimide (NHS)/1-Ethyl-3-(3-dimethylaminopropyl) carbodiimide (EDC) chemistry. Chips were quenched with ethanolamine and the affinity with which all candidate mAbs bound to the immobilized IL-31 was evaluated. All curves were fit to a 1:1 model. […] Results for affinity measurements are described herein.
Cellular potency was assessed using feline IL-31 to stimulate pSTAT3 signalling in FCFW4 cells. IC₅₀ vlaues were calculated for each antibody as described previously in this application. […] It is worth noting that both antibodies are considered potent with IC₅₀s in the range of those antibodies previously described herein from the 15H05 lineage (FIG. 3).

Like-named read-outs stand apart in the source and are kept apart here.

By Kd is commonly meant the equilibrium constant for the complex coming apart. Read a low Kd as a tighter complex. In general, kon refers to the second-order rate constant of association. A lower kon goes with slow association.

B1: mouse anti equine IL-31 antibody 04H07 (antibody, V domains shown)
VH: QVQLQQPGAELVRPGASVKLSCKASGYTFTSYWMNWAKQRPGQGLEWIGMIDPSDSEIHYNQVFKDKATLTVDKSSSTAYMQLSSLTSEDSAVYYCARQDIVTTVDYWGQGTTLTVSS
VL: DIVMSQSPSSLAVSVGEKVTMSCKSSQSLLYSINQKNHLAWFQQKPGQSPKLLIYWASTRESGVPARFTGSGSGTDFTLTISSVKTEDLAVYYCQQGYTYPFTFGSGTKLEIK
notes: Mouse hybridoma antibody; also called Mu_04H07
As to B1, in test [1], the binding result is on record as “binds”.

B2: mouse anti equine IL-31 antibody 06A09 (antibody, V domains shown)
VH: QVQLQQPGAELVRPGASVKLSCKAYGYTFTSYWMNWVKQRPGQGLEWIGMIDPSDSETHYNQIFRDKATLTIDKSSSTAYMQLSSLTSEDSAVYFCARQDIVTTVDYWGQGTTLTVSS
VL: DIVMSQSPSSLAVSVGEKVTMSCKSSQSLLYSINQKNFLAWYQQKPGQSPKLLIYWASTRESGVPDRFTGSGSGTDFTLTISSVKSEDLAVYYCQQHYGYPFTFGSGTKLEIK
notes: Mouse hybridoma antibody; also called Mu_06A09
B2: in test [1], the binding result is listed as “binds”.

B3: A14 (antibody, V domains shown)
VH: QVLLVQSGAEVRTPGASVKIFCKASGYSFTSYTIHWLRQAPAQGLEWMGNINPTSGYTENNQRFKDRLTLTADTSTNTAYMELSSLRSADTAMYYCARWGFKYDGEWSFDVWGAGTTVTVSS
VL: EIQMTQSPSSLSASPGDRVTITCRASQGISIWLSWYQQKPGNIPKVLIAKASNLHIGVPSRFSGSGSGTDFTLTISSLEPEDAATYYCLQSQTYPLTFGGGTKLEIK
As for B3, in [2], the Binding Similarity score is 8.4. The % Inhibition Relative to Parent (pSTAT, FCWF-4 cells) in test [3] is -5.4%.

B4: A22 (antibody, V domains shown)
VH: QVLLVQSGAEVRTPGASVKIFCKASGYSFTSYTIHWLRQAPAQGLEWMGNINPTSGYTENNQRFKDRLTLTADTSTNTAYMELSSLRSADTAMYYCARWGFKYDGEWSFDVWGAGTTVTVSS
VL: EIQMTQSPSSLSASPGDRVTITCRASQGISIWLSWYQQKPGNIPKVLINKASNLHIGVPSRFSGSGSGTDFTLTISSLEPEDAATYYCLQAQTYPLTFGGGTKLEIK
Turning to B4, in test [2], the Binding Similarity score was 8.34. For the same molecule, the % Inhibition Relative to Parent (pSTAT, FCWF-4 cells) in test [3] is -4.3%.

B5: ZIL159 (recombinant fully canine antibody) (antibody, V domains shown)
VH: EVQLVESGGDLVKPAGSLRLSCVASGFTFSSYVMTWVRQAPGKGLQWVAGINSEGSRTAYADAVKGRFTISRDNAKNTLYLQIDSLRAEDTAIYYCATGDIVATGTSYWGQGTLVTVSS
VL: SNVLTQPPSVSVSLGQTATISCSGETLNRFYTQWFQQKAGQAPVLVIYKDTERPSGIPDRFSGSSSGNIHTLTISGARAEDEAAYYCKSAVSIDVGVFGGGTHLTVFR
notes: also called CAN-ZIL159
Regarding B5, the binding result in test [4] and in test [5] was “no binding” in each case. The ELISA OD in test [6] was 1.31 OD; in test [7], 1.6 OD.

B6: ZIL154 (recombinant fully canine antibody) (antibody, V domains shown)
VH: EVHLVESGGDLVKPWGSLRLSCVASGFTFSDRGMSWVRQSPGKGLQWVAYIRYDGSRTDYADAVEGRFTISRDNAKNTLYLQMNSLRAEDTAVYYCARWDGSSFDYWGQGTLVTVSS
VL: DIVVTQTPLSLSVSPGETASFSCKASQSLLHSDGNTYLDWFRQKPGQSPQRLIYKVSNRDPGVPDRFSGSGSGTDFTLRISGVEADDAGLYYCMQAIHFPLTFGAGTKVELKR
notes: Fully canine IgG; also called CAN-ZIL154
Turning to B6, the binding result in test [4] is listed as “binds”; with human IL-31, “no binding”; in test [5], “no binding”. Also, the “ELISA OD” value in test [8] was found to be 1.38 OD; in test [7], 1.62 OD.

B7: ZTS-5864 (antibody, V domains shown)
VH: DVQLVESGGDLVKPGGSLRLTCVASGFTFSDYAMSWVRQAPGKGLQWVAGIDSVGSGTSYADSVKGRFTISRDNAKNTLYLQMNSLKTEDTATYYCASGFPGSFEHWGQGALVTVSS
VL: QSVLTQPSSVSGTLGQRITISCTGSSSNIGSGYVGWYQQVPGMGPKTVIYYNSDRPSGVPDRFSGSKSGSSGTLTITGLQAEDEADYYCSVYDRTFNAVFGGGTHLTVLG
notes: see recheck
In the case of B7, the “IC50, inhibition of feline IL-31 induced pSTAT3 in feline FCWF4 cells” value in [9] came out at 3.73 µg/ml. Moreover, in test [10], the “IC50, feline IL-31 stimulated pSTAT3 signalling in FCFW4 cells, relative to ZTS-5865” value is roughly 3 fold. In [11], this molecule had a Kd of 0.571 nM and a kon of 108000 M⁻¹ s⁻¹.

B8: ZTS-5865 (antibody, V domains shown)
VH: DVQLVESGGDLVKPGGSLRLTCVASGFTFSDYAMNWVRQAPGKGLQWVAGIDSVGSGTSYADSVKGRFTISRDNAKNTLYLQMSGLKTEDTATYYCASGFPGSFEHWGQGTLVTVSS
VL: QSVLTQPSSVSGTLGQRITISCTGSSSNIGSGYVGWYQQVPGMGPKTVIYYNSDRPSGVPDRFSGSKSGSSGTLTITGLQAEDEADYYCSVYDRTFNAVFGGGTHLTVLG
notes: see recheck
With B8, in test [9], the “IC50, inhibition of feline IL-31 induced pSTAT3 in feline FCWF4 cells” value was 9.08 µg/ml. In test [11], this molecule yielded a Kd of 2.12 nM and a kon of 76200 M⁻¹ s⁻¹.

The values are drawn from US20250136677A1 (ZOETIS SERVICES, published 2025).
